Measurements reported in patent US20220362278A1, “RENAL TARGETING-TYPE DRUG DELIVERY CARRIER HAVING EXCELLENT BIODEGRABILITY” (priority 2019, published 2022).

How the values were obtained:
[1] = Acute kidney toxicity after administration; assay type: in vivo, ddY mouse; details: positive control, 8 mg/kg s.c., bred for 2 days
Experimental: The severity of renal damage was evaluated from the plasma creatinine level and plasma urea nitrogen concentration 6 days after the start of administration. The plasma creatinine concentration was measured using a commercially available measurement kit (LabAssay, manufactured by Wako Pure Chemical Industries, Ltd.). Plasma urea nitrogen concentration was measured using a commercially available measurement kit (DIUR-100, manufactured by BioAssySystem). Mercury chloride was subcutaneously injected at 8 mg/kg, the group bred for 2 days was used as a positive control, and the results were compared.

[2] = Mean particle size and zeta potential by Zetasizer Nano ZS; assay type: physicochemical; details: for physicochemical properties (particle size and zeta potential) of the labeled compound versus the unlabeled compound: stated in words
Source text: 1.1 equivalents of Boc-Ser(t-Bu)-OH (manufactured by Watanabe Chemical Industries, Ltd.), 1.1 equivalents of 1-[bis(dimethylamino)methylene]-1H-benzotriazolium 3-oxide hexafluorophosphate (HBTU) (manufactured by Merck Millipore), 1.1 equivalents of anhydrous 1-hydroxy-1H-benzotriazole (HOBt) (manufactured by Watanabe Chemical Industries, Ltd.) and 2.2 equivalents of N,N-diisopropyl ethylamine (DIPEA), each to the total number of amino groups of poly-L-lysine hydrobromide (manufactured by Sigma-Aldrich Co. LLC., P6516-100M, number average molecular weight: 4000-15000) were mixed in DMF/DMSO (1:1). Then, the reaction mixture was reacted by stirring at room temperature until the ninhydrin test yielded negative results on TLC analysis. After completion of coupling, this solution was purified by precipitation with diethylether three times. The precipitates thereof were dissolved in a trifluoroacetic acid (TFA) cocktail (95% TFA, 2.5% […] (TIS) and 2.5% purified water) to deprotect the Boc group and t-Bu group (protecting group of oxygen atom of serine). Then, the reaction mixture was incubated at room temperature for 90 min. After completion of deprotection, the reaction mixture was purified by precipitation with diethylether three times.

B16-BL6/Luc cells = assay: Renal cell carcinoma proliferation suppressive activity in renal cell carcinoma model mouse; assay type: in vivo, C57BL/6J mouse
Experimental: The renal cell carcinoma model was produced by injecting firefly luciferase gene-labeled B16-BL6 cells (B16-BL6/Luc cells, 2.5×10^5 cells) together with Matigel (registered trade mark) Matrix in the renal cortex of the right kidney of C57BL/6J mouse. […] 14 days after tumor inoculation, 2.5 mg of D-Luciferin was intraperitoneally injected into the mouse under anesthesia by intraperitoneal injection of triple anesthesia (medetomidine (0.3 mg/kg), midazolam (2 mg/kg), butorphanol (2.5 mg/kg)), and imaged using LAS-4000 IVIS Imaging System (FUJIFILM, Japan). Then, the mouse was euthanized, the kidneys were isolated, and the luciferase activity in the tissue was measured with a luminometer (Lumat LB9507, EG&G Berthold, Bad Wild-bad, Germany). From the obtained luciferase activity, the number of cancer cells in the kidney was calculated using a regression line. In addition, the body weight of the mouse was measured immediately after the tumor inoculation administration and 14 days after the tumor inoculation.

[3] = Releasability of serine and biodegradability: PD-10 fractionation of kidney homogenate radioactivity; details: 3 hr after intravenous administration
Experimental: The kidney after blood removal was immediately ice-cooled, purified water (4 mL) was added and homogenized. A saturated potassium chloride solution (1 mL) was added to the prepared kidney homogenate, and the mixture was allowed to stand at 4° C. overnight and then centrifuged. The centrifuged supernatant (1 mL) was developed on a PD-10 column with 0.1 M acetate buffer (pH 6.0), and the radioactivity of the fraction was measured.

[Cl][Hg][Cl] [mercury chloride, Mercury chloride]
plasma creatinine level ([1]; FIG. 8(A)): increase | plasma urea nitrogen concentration ([1]; FIG. 8(B)): increase | histological section of kidney tissue ([1]; FIG. 8(C)): infiltration and necrosis of inflammatory cells and damaged cells were observed

FITC-labeled serine-modified poly-L-lysine [FITC-labeled compound (Ia)]
physicochemical properties (particle size and zeta potential) of the labeled compound versus the unlabeled compound [2]: the same as those of compound (Ia)

^90Y-labeled serine-modified poly-L-lysine [^90Y-labeled compound (Ia)]
luciferase luminescence derived from cancer cells (B16-BL6/Luc cells; 14 days after tumor inoculation, vs PBS, FIG. 9(B)): remarkably suppressed as compared with that of mouse administered with PBS | growth of the number of cancer cells in the kidney (B16-BL6/Luc cells; i.v. immediately after tumor inoculation, 14 days after inoculation, vs PBS, FIG. 9(A)): remarkably suppressed | body weight of mouse (B16-BL6/Luc cells; immediately after and 14 days after tumor inoculation, FIG. 9(C)): did not affect

^111In-labeled PAMAM(G3)
mean particle size ([2]; PBS (pH 7.4), 1 mg/mL): 4.20±0.09 nm | zeta potential ([2]; PBS (pH 7.4), 1 mg/mL): 4.56±0.81 mV | physicochemical properties (particle size and zeta potential) of the labeled compound versus the unlabeled compound [2]: also the same

^111In-labeled poly-L-lysine
physicochemical properties (particle size and zeta potential) of the labeled compound versus the unlabeled compound [2]: the same as those of poly-L-lysine | decomposition in the kidney [3]: easily decomposed in the kidney | radioactivity in high / low molecular weight fraction, kidney homogenate ([3]; PD-10 column): mainly on the low molecular weight fraction side

^111In-labeled serine-modified PAMAM(G3)
physicochemical properties (particle size and zeta potential) of the labeled compound versus the unlabeled compound [2]: also the same

^111In-labeled serine-modified poly-L-lysine [^111In-labeled compound (Ia)]
physicochemical properties (particle size and zeta potential) of the labeled compound versus the unlabeled compound [2]: the same as those of compound (Ia)
